We go through three molecules from article PMC5626966, “Molecular and Physiological Logics of the Pyruvate-Induced Response of a Novel Transporter in Bacillus subtilis” (mBio, 2017).

For series [1], the target named is T1, PftAB (YsbAB) pyruvate-facilitated transporter (Bacillus subtilis, UniProt P94515+P94516).
T1 construct: gene lrgA; full-length untagged pftAB in B. subtilis cells (WT, delta-pftAB, IPTG-inducible Phs-pftAB strains)
In words: transport in growing cells, extracellular pyruvate by HPLC, fit of facilitated transport model. It is filed as cell-based. The note with it: B. subtilis cells, M9 minimal medium; model estimate of facilitated transport (Text S1, Table S2).

The target of series [2] is T2, LytT (His6-LytT) (Bacillus subtilis (168?)) (UniProt P94514).
T2 sequence: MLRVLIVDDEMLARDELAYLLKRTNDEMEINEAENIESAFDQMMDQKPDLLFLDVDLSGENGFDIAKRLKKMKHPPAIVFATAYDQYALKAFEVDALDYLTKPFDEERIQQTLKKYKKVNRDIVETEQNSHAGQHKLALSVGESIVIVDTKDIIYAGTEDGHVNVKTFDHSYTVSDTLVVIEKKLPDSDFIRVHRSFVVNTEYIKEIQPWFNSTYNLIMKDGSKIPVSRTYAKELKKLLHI
In words: EMSA. The note with it: EMSA: LytT with 50 ng DNA and 50 µg/ml poly(dI-dC); CcpA with 10 ng DNA and 400 µg/ml salmon sperm DNA; 6% or 8% native acrylamide gel in TAE; binding buffer …. A general note: In EMSA bound probe runs differently from free probe, usually more slowly.

T1 sequence (P94515 whole entry): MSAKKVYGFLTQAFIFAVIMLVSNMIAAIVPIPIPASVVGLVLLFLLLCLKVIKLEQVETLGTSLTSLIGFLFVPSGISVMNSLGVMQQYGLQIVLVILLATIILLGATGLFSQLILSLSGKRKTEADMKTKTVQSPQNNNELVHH
T1 sequence (P94516 whole entry): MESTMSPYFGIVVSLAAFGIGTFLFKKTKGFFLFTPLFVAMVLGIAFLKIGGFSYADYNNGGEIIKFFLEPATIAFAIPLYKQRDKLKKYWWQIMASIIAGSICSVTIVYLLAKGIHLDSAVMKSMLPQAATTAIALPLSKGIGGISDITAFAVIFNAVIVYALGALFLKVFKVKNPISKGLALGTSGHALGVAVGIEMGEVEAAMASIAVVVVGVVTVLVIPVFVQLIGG

Take `CC(=O)C(=O)O` [pyruvate]: in series [1], the “Km (apparent affinity constant)” value is listed as ~ 1.0 ± 0.1 mmol ⋅ liter^−1.

“CCATGGTTTAATTCAACGTATAATCTGATCATGAAAGACGGATCGAAAATACCGGTCAGCCGGACATATGCGAAGGAATTGAAAAAGCTGCTCCATATTTGATGGGCGGCTTTTTGCATTTCAGCCATTTGATTCTGCAACTCAGACCCGCTATACGGCATGTTATCTTGTAAGCGCTTTATAACAGGGAATTCTTATTTATAATGAGGGTACCAAAGAGAAAGAGGTGAAGAAAATGAGTGCTAAAAAAGTGTACG (double strand) [PpftAB 257 bp]”: the binding result in series [2] was “binds”.

Take “CCATGGTTTAATTCAACGTATAATCTGATCATGAAAGACGGATCGAAAATACCGGTCAGCCGGACATATGCGAAGGAATTGAAAAAGCTGCTCCATATTTGATGGGCGGCTTTTTGCATTTCAGCCATTTGATTCTGCAACTCAGACCCGCTATACGGCATGTTATCTTGTAAGCGCTTTATAACAGGGAATTCTTATTTATAATGAGGGTACCAAAGAGAAAGAGGTGAAGAAAATGAGTGCTAAAAAAGTGTACG (double strand) [PpftAB reporter strain fragment 267 bp]”: in series [2], the binding entry was “binds”.
